Data reported in the supplement of paper PMC9170038.

System: MS2 coat protein
Assay: apparent KD of MS2 coat protein; designed switch direction (-1 OFF switch, 1 ON switch): -1; higher = weaker reporter binding
Outline: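 The apparent KD reported per design is the median over clusters of curve fits to normalised cluster fluorescence. The RNA switches were transcribed on Illumina chips by stalled E. coli RNA polymerase. SNAP-549-labelled MS2 coat protein was titrated from 0.7 or 1.5 nM, doubling up to 3 µM, in Tris-HCl pH 7.5 buffer containing KCl, MgCl2, BSA, DTT, tRNA and Tween-20, with no input, 200 uM small-molecule ligand, or an oligonucleotide input.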

[1] = input ligand: microRNA oligo, concentration not stated
[2] = Eterna round: R95, input ligand: FMN 200 uM
[3] = Eterna round: R95, input ligand: microRNA oligo, concentration not stated
[4] = Eterna round: R95, input ligand: none

Sequence | apparent KD of MS2 coat protein (input ligand: FMN 200 uM) | apparent KD of MS2 coat protein (input ligand: none) | apparent KD of MS2 coat protein [1] | apparent KD of MS2 coat protein [2] | apparent KD of MS2 coat protein [3] | apparent KD of MS2 coat protein [4]
UGCGGGCUUUUGAGACCUCACAUGAGGAUCACCCAUGUGCUUGUCUUGUGGGUGGGUAGGUCGUUGGCUGACUCACG [Sensor-V1 #98] (Eterna round: R97, puzzle: Sensor, turn-off variant 1) | 68.2 nM | 68.9 nM |  |  |  | 
UACAUGAGGAUCACCCAUGUUUUGUCGUGUAUGGUAUUUAUCUAGGAUAUCAAUUUAAUUAUUUAUGAGAAGGAGAAUAUUAAU [JMF's solution 17] (Eterna round: R96, puzzle: Exclusion NG 3) |  |  | 29.8 nM |  |  | 
UGAUCACAUGAGGAUCACCCAUGUCAGGAUAUCGUCACUGGAGCUUCGGCUCCAGUGACGAGAAGGGACAUAAU [E1/3-A1] (Eterna round: R97, puzzle: Exclusion 1) | 77.4 nM | 141 nM |  |  |  | 
CGCAUGUGAGGAUAUUAGUAGUAGUCAGAAUAGACUAUUACUGAGAAGGUACAUGAGGAUCACCCAUGUAUGCG [Eli x4 4.22] (Eterna round: R97, puzzle: Exclusion 4) | 38.9 nM | 21.5 nM |  |  |  | 
ACAUGAGGAUCACCCAUGUCCGGCUGGUCCGUUUCGGCUGUCGAGGAUAUAGUUCGGUGUCCGCGCUAGAAGGCGGGAGCCGGC [Aenatbe mod 62] (Eterna round: R96, puzzle: Exclusion NG 3) | 210 nM | 112 nM | 80.9 nM |  |  | 
GAUGAGGUAGGAUAUACGAUAAUAUAGGGUAGAUAUAUAACACAUGAGGAUCACCCAUGUAGAAGGACCAGUAG [Mat - Exclusion 2 - Mod of my Tesla design - D66] (Eterna round: R96, puzzle: Exclusion 2) | 143 nM | 42.3 nM | 30.3 nM |  |  | 
CCGGAAAGGGAGGAUAUAGGAGUCGAUAGACACCUAGAAGGUCUGACAUGAGGAUCACCCAUGUGUCCUACCGG [Fiskers Ex 6 - 90] (puzzle: Exclusion 6) |  |  |  | 20.3 nM | 19.9 nM | 19.8 nM
GCCGGUCAUGUAGGAUAUGGCCGGCGGUGCCGGCCAGAAGGACAUGAGGAUCACCCAUGUGCCGGCCUUUGGCCGGCACCCGGC (Eterna round: R96, puzzle: Exclusion NG 1) | 10.3 nM | 17.2 nM | 8.76 nM |  |  | 
GCAAGCUUUUUGGUUUUCAACAUGAGGAUCACCCAUGUUCGUCUUGUGCUCGGGCUUGGGCGGUGUCCGGGUUUGGG [Default title] (Eterna round: R97, puzzle: Sensor, turn-off variant 1) | 45.8 nM | 48.5 nM |  |  |  | 
AGUCGGCGAGGAUAUACAUGAGGAUCACCCAUGUAUGAUCCUAGACCUGUAGGUCCAUGUAGAAGGCGCUGACA [Exclusion 3 - Was a mod at one point v.3] (puzzle: Exclusion 3) |  |  |  |  | 66.2 nM | 
UACUGGACAGGAUAUGUUCUUGAGCACUUGAGGAUCACCCAAGUCAUCAAGAACUCAGGCACAGAAGGGUUUAUGC [salish99_ex5_r4_007] (Eterna round: R97, puzzle: Exclusion 5) | 19.1 nM | 14 nM |  |  |  | 
GGGCUCGGAGGAUAUACAAUCUCGGGCUGAAAGGCUCGGGUACAUGAGGAUCACCCAUGUAGAAGGUCGGGCUC [-30.2, -27.6 kcal A 24%, 4bis,4] (Eterna round: R97, puzzle: Exclusion 2) | 26 nM | 15.9 nM |  |  |  | 
UUGUUGUAUGUAGGAUAUGCAUAUUGUUAUUAUGCAGAAGGACAUGAGGAUCACCCAUGUAUGUUAUUAUUAUGUGUUAUGUGU [Title] (Eterna round: R96, puzzle: Exclusion NG 1) |  |  | 30.3 nM |  |  | 
GCGAAAGAAAACAGGUGAAACAUGAGGAUCACCCAUGUCCUCAUUUGCUCGUCUUAUAAGCUAUGCGAAAGCAUAGC [Mat - Sensor v3 - turn-off var 1 - Eli Mod - D52] (puzzle: Sensor v3, turn-off variant 1) |  |  |  | 173 nM | 391 nM | 218 nM
CUGGUCUAUGUAGGAUAUGGUGUAUAUGUAUUACCAGAAGGACAUGAGGAUCACCCAUGUGUCGUGGUAUGAGUAGGUGAUGUU [Random] (Eterna round: R96, puzzle: Exclusion NG 1) |  |  | 40.2 nM |  |  | 
GCUCGUGGGCAAGGAUAUCCUACGCUGUUCUGGUUCGUGUCUGUCACAUGAGGAUCACCCAUGUGGGAGAAGGUGCAUUUGGGU [Design 56] (Eterna round: R96, puzzle: Exclusion NG 2) | 18.2 nM | 20.6 nM | 15.9 nM |  |  | 
GCGGACAAGAUCGUGAGAUCAGAGACAUGAGGAUCACCCAUGUAGGAUAUCGAUUCGAAACGAAUCGAGAAGGGCAUAGUCCGC [JL denovo 6] (Eterna round: R96, puzzle: Exclusion NG 3) | 20.5 nM | 19.8 nM | 14.9 nM |  |  | 
CAGUACUGAGGAUAUACAUGAGGAUCACCCAUGUGUUCCAGCUAGGAAACUAGCAUAAGUAGAAGGCAGUACUG [salish99_ex3_r3_091x] (puzzle: Exclusion 3) |  |  |  |  | 21.8 nM | 
GCUUGUGGGCAAGGAUAUCCUGCGCUGUUCUGGUUCGUGUCUGUCACAUGAGGAUCACCCAUGUGGGAGAAGGUGCCUUUGGUG [Design 64] (Eterna round: R96, puzzle: Exclusion NG 2) | 13.4 nM | 14.9 nM | 10.9 nM |  |  | 
AGCAACGUACAGGAUAUACUUCACCUUCUAGAAGUAGAAGGGUGCACAUGAGGAUCACCCAUGUUAGCGAGCAG [Eternabot (Original) Solution 25] (Eterna round: R97, puzzle: Exclusion 6) | 18.4 nM | 15.9 nM |  |  |  | 
GUUUGCAGACGGAGAUCCUACAUGAGGAUCACCCAUGUCUCACUAGCUUUUUGCUCGUCUUAUCCUCCUCUGUUCUC [Elimod 27 - Jieux - Sensor, turn-off variant 1] (Eterna round: R97, puzzle: Sensor, turn-off variant 1) | 260 nM | 303 nM |  |  |  | 
AAGAACCCGGUAGGAUAUAUUGUGGGCAAACAUGGAACAACAUGAGGAUCACCCAUGUAAUUUAGGUAGAAGGGCCAAAAGAGA [Default title] (Eterna round: R96, puzzle: Exclusion NG 2) | 80.1 nM | 71.4 nM | 51.6 nM |  |  | 
GCUUUAUGCUCGUUAUAACACAUGAGGAUCACCCAUGUUCGGGCUUACGAGUCGUUCUGAAUGUGACCCUGCAUGAG [Eternabot (L2) Solution 47] (Eterna round: R97, puzzle: Sensor, turn-off variant 1) | 200 nM | 193 nM |  |  |  | 
